Source: article PMC1368978, “Crystal structure of a DNA polymerase sliding clamp from a Gram-positive bacterium” (BMC Structural Biology, 2006)

Target: the molecule itself
Experiment: crystal structure; hanging drop, 20 mg/mL protein in Buffer A + 100 mM NaCl; 30% PEG 2000 MME, 100 mM sodium acetate pH 4.5, 200 mM ammonium sulfate, 20°C; space group P2(1), one dimer in the asymmetric unit; refined to 2.1 Å

B1: β subunit of the DNA polymerase III holoenzyme of Streptococcus pyogenes (natural protein)
chain: MIQFSINRTLFIHALNTTKRAISTKNAIPILSSIKIEVTSTGVTLTGSNGQISIENTIPVSNENAGLLITSPGAILLEASFFINIISSLPDISINVKEIEQHQVVLTSGKSEITLKGKDVDQYPRLQEVSTENPLILKTKLLKSIIAETAFAASLQESRPILTGVHIVLSNHKDFKAVATDSHRMSQRLITLDNTSADLMVVLPSKSLREFSAVFTDDIETVEVFFSPSQILFRSEHISFYTRLLEGNYPDTDRLLMTEFETEVVFNTQSLRHAMERAFLISNATQNGTVKLEITQNHISAHVNSPEVGKVNEDLDIVSQSGSDLTISFNPTYLIESLKAIKSETVKIHFLSPVRPFTLTPGDEEESFIQLITPVRTN
notes: β subunit (sliding clamp) of DNA polymerase III, Streptococcus pyogenes; residues up to Thr 377 are named in the model; A selenomethionine-derivatized form was also made and crystallized for phasing (MAD); also called S. pyogenes β subunit; S. pyogenes β clamp; source: E. coli BLR DE3 (plasmid pETSpdnaN), purified (ammonium sulfate cut, Fast Flow Q, EAH-Sepharose 4B, Mono Q)
stoichiometry N: 2
